Laboratory results taken from patent US9968935B2, “Devices for cell assays” (Platypus Technologies, LLC, priority 2007, dated 2018).

System: HT-1080 cells
Assay: Adherence and morphology of HT-1080 cells on photoimmobilized hyaluronic acid, before and after hyaluronidase treatment
Format: cell-based
Settings: 30 minute treatment, 50 microliters of 1000 U/ml, wells not phototreated with HA
Protocol: This example describes the ability to block adhesion of HT-1080 cells to a surface coated with hyaluronic acid (HA). The HA was functionalized with a photoactive linker and immobilized to the bottom of a well in a tissue culture plate. The material was prepared by reacting the carboxyl group of HA disaccharides with the amine group of a heterobifunctional crosslinker (4-[p-azidosalicylamido]butylamine, ASBA) via carbodiimide chemistry. The other end of the ASBA crosslinker contains a photoactive group, so this reaction renders the HA photoactive. […] Briefly, the HA was dissolved in MES buffer and reacted with EDC and Sulfo-NHS for 15 min at room temperature. The pH of the buffer was adjusted to ca. 7.0 with concentrated PBS and ASBA was added to the solution and allowed to react for 2 h at room temperature in a light-proof vial. The reaction was quenched using 50 mM Tris. Unreacted components and reaction by-products were removed via dialysis against diH2O using a 3,000 MW exclusion. The reaction product was protected from exposure to light during lyophilization. Three species of photoactive HA were prepared that varied according to the molecular weight of the HA chains: low, medium and high MW chains.
The lyophilized, photoactive HA was reconstituted in PBS and adjusted to a working concentration of 0.2 mg/ml. […]

Hyaluronidase
effect of hyaluronidase on cells attached to control wells without HA (morphology, toxicity): did not have a significant effect | effect of hyaluronidase on cells attached to control wells without HA (morphology, toxicity) (listed as HA-ase): does not cause any gross morphological changes or have any toxic effects
